Measured values from PMC10718286.

Tested on: C[S+](CC[C@H](N)C(=O)O)C[C@H]1O[C@@H](n2cnc3c(N)ncnc32)[C@H](O)[C@@H]1O
Test: purified protein
Settings: catalytic SET domain; varied: cofactor

SETDB1 (full-length, SETDB1-FL) (Homo sapiens)
kcat: 8.06e-05 s⁻¹
kcat/Km: 88.9 M⁻¹ s⁻¹
